Source: patent publication US5925540A, “Synthetic antifreeze peptide and synthetic gene coding for its production” (Virginia Tech Intellectual Properties, Inc., priority 1991, dated 1999)

Tested on: JM109(DE3)
Assay: Studies of cell viability in JM109(DE3) strains bearing pX28 or pX284 after IPTG induction
Type: cell-based, E.coli
Details: WF8R expressed as P10 fusion protein from pX28 / pX284; effects more pronounced in the pX28 harboring strain
Excerpt: The pX28 and pX284 were transformed into JM109(DE3). The proteins produced in either the JM109(DE3)[pX28] or in the JM109(DE3)[pX284] after induction by IPTG in mid- or late-logarithmic growth phase, have been analyzed by sodium dodecyl sulfate (SDS)-polyacrylamide gel electrophoresis (SDS-PAGE). […] Studies of cell viability in these strains have shown that both strains are adversely affected with respect to growth and stability of the plasmid (these effects were more pronounced in the pX28 harboring strain). […] To avert this problem the applicants decided to protect the fusion protein from intracellular degradation, as well as to protect the cells from the toxicity of WF8R, by adding to the fusion a C-terminal end derived from E.coli β-galactosidase.

B1: WF8R: synthetic antifreeze peptide of 98 amino acids with eight eleven-amino-acid repeats, modeled on winter flounder AFP, expressed in E. coli (protein)
chain: MSTASDAAAAAAATAATAAAAAAATAATAAAAAAATAATAAAAAAATAATAAAAAAATAATAAAAAAATAATAAKAAALTAANAAAAAAATAAAAARG
toxicity to the host cells (growth and stability of the plasmid adversely affected): toxic to the cells
